Results reported in patent US20230021388A1 (VELOSBIO, published 2023).

Target: T1, recombinant human ROR1 extracellular domain (human, UniProt Q01973 30-406)
T1 construct: biotinylated for the filter lifts; also called huROR1-ECD; human ROR1-ECD
Test: ELISA, soluble Fab on coated huROR1-ECD
Experimental: The previously described filter lift assay provides a visual, qualitative assessment of antigen binding (Example 1). In order to assess the ROR1 binding activity of Ab1 Fab in a more quantitative fashion, an ELISA assay was developed. A 96-well Costar-3366 plate was coated with 50 μL/well of 1 μg/mL human ROR1-ECD (ACROBiosystems, cat. #RO1-H522y) in PBS overnight at 4° C. The plate was rinsed once with PBS-T and blocked with 100 μL/well of 5% M-P for 1 h at 25° C. Fab samples were serially diluted 3-fold using 5% M-P and 50 μL/well was incubated for 1 h at 25° C. The plate was washed three times with PBS-T and 50 μL/well anti-human kappa, and HRP conjugate (Southern Biotech, cat. #2060-05) diluted 10,000-fold in 5% M-P was added for 1 h at 25° C. In certain assays (extended wash format), the plate was placed in large volumes (up to 1 L) of PBS-T and incubated, with mixing, for 2-5 h prior to the addition of anti-human kappa, HRP conjugate. The plate was washed three times with PBS-T, and developed with 50 μL/well 1-Step Ultra TMB-ELISA (Thermo Scientific, cat. #34028). The reaction was terminated by the addition of 2 N H2504 and the A450 was determined using a Spectramax plate reader.

T1 sequence (Q01973 30-406 limits assumed): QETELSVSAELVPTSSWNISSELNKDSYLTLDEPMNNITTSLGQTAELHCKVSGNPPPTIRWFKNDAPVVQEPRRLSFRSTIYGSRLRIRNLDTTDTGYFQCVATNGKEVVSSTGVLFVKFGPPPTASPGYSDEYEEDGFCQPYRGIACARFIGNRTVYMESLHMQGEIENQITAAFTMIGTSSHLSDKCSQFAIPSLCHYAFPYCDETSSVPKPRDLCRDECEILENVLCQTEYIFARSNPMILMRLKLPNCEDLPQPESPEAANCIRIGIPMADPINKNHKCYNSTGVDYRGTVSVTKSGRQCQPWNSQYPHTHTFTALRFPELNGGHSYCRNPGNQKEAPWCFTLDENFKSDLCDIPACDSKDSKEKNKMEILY

Row | Binder | Kd [nM]
1 | Ab1 Fab variant H2 G66E (Fab, V domains shown, Fab) VH: QVQLQESGPGLVKPSQTLSLTCTVSGYAFTAYNIHWVRQAPGQGLEWMGSFDPYDEGSSYNQKFKDRLTISKDTSKNQVVLTMTNMDPVDTATYYCARGWYYFDYWGHGTLVTVSS VL: DIVMTQTPLSLPVTPGEPASISCRASKSISKYLAWYQQKPGQAPRLLIYSGSTLQSGIPPRFSGSGYGTDFTLTINNIESEDAAYYFCQQHDESPYTFGEGTKVEIK | 0.9
2 | Ab1 Fab variant H2 N71H (Fab, V domains shown, Fab) VH: QVQLQESGPGLVKPSQTLSLTCTVSGYAFTAYNIHWVRQAPGQGLEWMGSFDPYDGGSSYHQKFKDRLTISKDTSKNQVVLTMTNMDPVDTATYYCARGWYYFDYWGHGTLVTVSS VL: DIVMTQTPLSLPVTPGEPASISCRASKSISKYLAWYQQKPGQAPRLLIYSGSTLQSGIPPRFSGSGYGTDFTLTINNIESEDAAYYFCQQHDESPYTFGEGTKVEIK | 1.1
3 | Ab1 Fab variant H2 S69K (Fab, V domains shown, Fab) VH: QVQLQESGPGLVKPSQTLSLTCTVSGYAFTAYNIHWVRQAPGQGLEWMGSFDPYDGGSKYNQKFKDRLTISKDTSKNQVVLTMTNMDPVDTATYYCARGWYYFDYWGHGTLVTVSS VL: DIVMTQTPLSLPVTPGEPASISCRASKSISKYLAWYQQKPGQAPRLLIYSGSTLQSGIPPRFSGSGYGTDFTLTINNIESEDAAYYFCQQHDESPYTFGEGTKVEIK | 46
4 | Ab1 Fab variant H2 G67Y (Fab, V domains shown, Fab) VH: QVQLQESGPGLVKPSQTLSLTCTVSGYAFTAYNIHWVRQAPGQGLEWMGSFDPYDGYSSYNQKFKDRLTISKDTSKNQVVLTMTNMDPVDTATYYCARGWYYFDYWGHGTLVTVSS VL: DIVMTQTPLSLPVTPGEPASISCRASKSISKYLAWYQQKPGQAPRLLIYSGSTLQSGIPPRFSGSGYGTDFTLTINNIESEDAAYYFCQQHDESPYTFGEGTKVEIK | 6.3
5 | Ab1 Fab variant H2 S68A (Fab, V domains shown, Fab) VH: QVQLQESGPGLVKPSQTLSLTCTVSGYAFTAYNIHWVRQAPGQGLEWMGSFDPYDGGASYNQKFKDRLTISKDTSKNQVVLTMTNMDPVDTATYYCARGWYYFDYWGHGTLVTVSS VL: DIVMTQTPLSLPVTPGEPASISCRASKSISKYLAWYQQKPGQAPRLLIYSGSTLQSGIPPRFSGSGYGTDFTLTINNIESEDAAYYFCQQHDESPYTFGEGTKVEIK | 1.2
6 | Ab1 Fab variant H2 S68T (Fab, V domains shown, Fab) VH: QVQLQESGPGLVKPSQTLSLTCTVSGYAFTAYNIHWVRQAPGQGLEWMGSFDPYDGGTSYNQKFKDRLTISKDTSKNQVVLTMTNMDPVDTATYYCARGWYYFDYWGHGTLVTVSS VL: DIVMTQTPLSLPVTPGEPASISCRASKSISKYLAWYQQKPGQAPRLLIYSGSTLQSGIPPRFSGSGYGTDFTLTINNIESEDAAYYFCQQHDESPYTFGEGTKVEIK | 6.4
7 | Ab1 Fab variant H2 N71A (Fab, V domains shown, Fab) VH: QVQLQESGPGLVKPSQTLSLTCTVSGYAFTAYNIHWVRQAPGQGLEWMGSFDPYDGGSSYAQKFKDRLTISKDTSKNQVVLTMTNMDPVDTATYYCARGWYYFDYWGHGTLVTVSS VL: DIVMTQTPLSLPVTPGEPASISCRASKSISKYLAWYQQKPGQAPRLLIYSGSTLQSGIPPRFSGSGYGTDFTLTINNIESEDAAYYFCQQHDESPYTFGEGTKVEIK | 1.3
8 | Ab1 Fab variant H2 G67R (Fab, V domains shown, Fab) VH: QVQLQESGPGLVKPSQTLSLTCTVSGYAFTAYNIHWVRQAPGQGLEWMGSFDPYDGRSSYNQKFKDRLTISKDTSKNQVVLTMTNMDPVDTATYYCARGWYYFDYWGHGTLVTVSS VL: DIVMTQTPLSLPVTPGEPASISCRASKSISKYLAWYQQKPGQAPRLLIYSGSTLQSGIPPRFSGSGYGTDFTLTINNIESEDAAYYFCQQHDESPYTFGEGTKVEIK | 1.7

The remaining lines, values ahead:

Row | Kd [nM] | Binder
9 | 1.4 | Ab1 Fab variant H2 G66H (Fab, V domains shown, Fab) VH: QVQLQESGPGLVKPSQTLSLTCTVSGYAFTAYNIHWVRQAPGQGLEWMGSFDPYDHGSSYNQKFKDRLTISKDTSKNQVVLTMTNMDPVDTATYYCARGWYYFDYWGHGTLVTVSS VL: DIVMTQTPLSLPVTPGEPASISCRASKSISKYLAWYQQKPGQAPRLLIYSGSTLQSGIPPRFSGSGYGTDFTLTINNIESEDAAYYFCQQHDESPYTFGEGTKVEIK
10 | 2.2 | Ab1 Fab variant H2 G66N (Fab, V domains shown, Fab) VH: QVQLQESGPGLVKPSQTLSLTCTVSGYAFTAYNIHWVRQAPGQGLEWMGSFDPYDNGSSYNQKFKDRLTISKDTSKNQVVLTMTNMDPVDTATYYCARGWYYFDYWGHGTLVTVSS VL: DIVMTQTPLSLPVTPGEPASISCRASKSISKYLAWYQQKPGQAPRLLIYSGSTLQSGIPPRFSGSGYGTDFTLTINNIESEDAAYYFCQQHDESPYTFGEGTKVEIK
11 | 1.2 | Ab1 Fab variant H2 S69E (Fab, V domains shown, Fab) VH: QVQLQESGPGLVKPSQTLSLTCTVSGYAFTAYNIHWVRQAPGQGLEWMGSFDPYDGGSEYNQKFKDRLTISKDTSKNQVVLTMTNMDPVDTATYYCARGWYYFDYWGHGTLVTVSS VL: DIVMTQTPLSLPVTPGEPASISCRASKSISKYLAWYQQKPGQAPRLLIYSGSTLQSGIPPRFSGSGYGTDFTLTINNIESEDAAYYFCQQHDESPYTFGEGTKVEIK
12 | 1.2 | Ab1 Fab variant H2 N71S (Fab, V domains shown, Fab) VH: QVQLQESGPGLVKPSQTLSLTCTVSGYAFTAYNIHWVRQAPGQGLEWMGSFDPYDGGSSYSQKFKDRLTISKDTSKNQVVLTMTNMDPVDTATYYCARGWYYFDYWGHGTLVTVSS VL: DIVMTQTPLSLPVTPGEPASISCRASKSISKYLAWYQQKPGQAPRLLIYSGSTLQSGIPPRFSGSGYGTDFTLTINNIESEDAAYYFCQQHDESPYTFGEGTKVEIK
13 | 0.6 | Ab1 Fab variant H2 G67P (Fab, V domains shown, Fab) VH: QVQLQESGPGLVKPSQTLSLTCTVSGYAFTAYNIHWVRQAPGQGLEWMGSFDPYDGPSSYNQKFKDRLTISKDTSKNQVVLTMTNMDPVDTATYYCARGWYYFDYWGHGTLVTVSS VL: DIVMTQTPLSLPVTPGEPASISCRASKSISKYLAWYQQKPGQAPRLLIYSGSTLQSGIPPRFSGSGYGTDFTLTINNIESEDAAYYFCQQHDESPYTFGEGTKVEIK
14 | 1.5 | Ab1 Fab variant H2 N71G (Fab, V domains shown, Fab) VH: QVQLQESGPGLVKPSQTLSLTCTVSGYAFTAYNIHWVRQAPGQGLEWMGSFDPYDGGSSYGQKFKDRLTISKDTSKNQVVLTMTNMDPVDTATYYCARGWYYFDYWGHGTLVTVSS VL: DIVMTQTPLSLPVTPGEPASISCRASKSISKYLAWYQQKPGQAPRLLIYSGSTLQSGIPPRFSGSGYGTDFTLTINNIESEDAAYYFCQQHDESPYTFGEGTKVEIK
15 | 2.3 | Ab1 Fab variant H2 G67K (Fab, V domains shown, Fab) VH: QVQLQESGPGLVKPSQTLSLTCTVSGYAFTAYNIHWVRQAPGQGLEWMGSFDPYDGKSSYNQKFKDRLTISKDTSKNQVVLTMTNMDPVDTATYYCARGWYYFDYWGHGTLVTVSS VL: DIVMTQTPLSLPVTPGEPASISCRASKSISKYLAWYQQKPGQAPRLLIYSGSTLQSGIPPRFSGSGYGTDFTLTINNIESEDAAYYFCQQHDESPYTFGEGTKVEIK
16 | < 1 | Ab1 Fab variant H2 G67Q (Fab, V domains shown, Fab) VH: QVQLQESGPGLVKPSQTLSLTCTVSGYAFTAYNIHWVRQAPGQGLEWMGSFDPYDGQSSYNQKFKDRLTISKDTSKNQVVLTMTNMDPVDTATYYCARGWYYFDYWGHGTLVTVSS VL: DIVMTQTPLSLPVTPGEPASISCRASKSISKYLAWYQQKPGQAPRLLIYSGSTLQSGIPPRFSGSGYGTDFTLTINNIESEDAAYYFCQQHDESPYTFGEGTKVEIK
